The source of these data is article PMC12003327.

The target in assay [1] is recombinant human integrin alphaV beta3 (αvβ3) (human) (UniProt P06756).
The target is the same in assay [2]. The source holds these as a separate data set.
Assay [3] shares this target. The source holds these as a separate data set.

“recombinant trimeric SARS-CoV-2 Omicron BA.1 spike protein (from UniProt P0DTC2 14-1273) (natural protein)”: in assay [1], the phosphorylation of FAK in HL-mECs 1 h after infection with authentic Omicron BA.1 (western blot, against not infected cells) (fold increase) is 2.3 and the phosphorylation of Src in HL-mECs 1 h after infection with authentic Omicron BA.1 (western blot, against not infected cells) (fold increase) is 1.8. Moreover, in assay [2], the inhibition of FAK activation by Omicron BA.1 in HL-mECs pretreated with Heparinase III was determined as 48%, the inhibition of FAK activation by Omicron BA.1 in HL-mECs pretreated with mAb anti-αvβ3 came to 54%, the inhibition of FAK activation by Omicron BA.1 in HL-mECs pretreated with sodium chlorate is 48% and the inhibition of pSrc activation by Omicron BA.1 in HL-mECs pretreated with Heparinase III was 66%. For the same substance, in assay [2], the inhibition of pSrc activation by Omicron BA.1 in HL-mECs pretreated with mAb anti-αvβ3 worked out at 56% and the inhibition of pSrc activation by Omicron BA.1 in HL-mECs pretreated with sodium chlorate was 65%. For the same substance, in assay [3], the ERK phosphorylation in HL-mECs after infection with authentic Omicron BA.1 (western blot, against not infected cells) (fold increase) was 3.5; the inhibition of Omicron BA.1-induced ERK activation in HL-mECs pretreated with Heparinase III was found to be 56%; the inhibition of Omicron BA.1-induced ERK activation in HL-mECs pretreated with mAb anti-αvβ3 worked out at 44%; the inhibition of Omicron BA.1-induced ERK phosphorylation in HL-mECs pretreated with sodium chlorate turned out to be 53%.
